US20230287143A1 (published 2023)

Molecular target: human PD-L1 (human, UniProt Q9NZQ7 19-290)
Test: FACS

human PD-L1, sequence (Q9NZQ7 19-290): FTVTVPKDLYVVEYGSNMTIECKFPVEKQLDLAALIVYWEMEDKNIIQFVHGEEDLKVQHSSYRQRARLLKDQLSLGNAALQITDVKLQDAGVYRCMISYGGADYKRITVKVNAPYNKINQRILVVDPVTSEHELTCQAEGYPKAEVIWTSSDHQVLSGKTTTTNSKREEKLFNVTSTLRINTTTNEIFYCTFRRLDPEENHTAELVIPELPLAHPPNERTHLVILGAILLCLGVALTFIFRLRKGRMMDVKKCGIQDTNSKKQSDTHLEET

EC50: 1.2 nM
B1: PR004268, PD-L1×4-1BB bispecific binding protein with the VH-IgG structure (structure 4) (bispecific antibody)
light: DIQMTQSPSTLSASVGDRVTVTCRASQSIYIWLAWYQQKPGKAPNLLIYKASSLETGVPSRFSGSGSGTEFTLTISSLQPDDFATYYCQQYYGSSRTFGQGTKVEIKRTVAAPSVFIFPPSDEQLKSGTASVVCLLNNFYPREAKVQWKVDNALQSGNSQESVTEQDSKDSTYSLSSTLTLSKADYEKHKVYACEVTHQGLSSPVTKSFNRGEC
heavy: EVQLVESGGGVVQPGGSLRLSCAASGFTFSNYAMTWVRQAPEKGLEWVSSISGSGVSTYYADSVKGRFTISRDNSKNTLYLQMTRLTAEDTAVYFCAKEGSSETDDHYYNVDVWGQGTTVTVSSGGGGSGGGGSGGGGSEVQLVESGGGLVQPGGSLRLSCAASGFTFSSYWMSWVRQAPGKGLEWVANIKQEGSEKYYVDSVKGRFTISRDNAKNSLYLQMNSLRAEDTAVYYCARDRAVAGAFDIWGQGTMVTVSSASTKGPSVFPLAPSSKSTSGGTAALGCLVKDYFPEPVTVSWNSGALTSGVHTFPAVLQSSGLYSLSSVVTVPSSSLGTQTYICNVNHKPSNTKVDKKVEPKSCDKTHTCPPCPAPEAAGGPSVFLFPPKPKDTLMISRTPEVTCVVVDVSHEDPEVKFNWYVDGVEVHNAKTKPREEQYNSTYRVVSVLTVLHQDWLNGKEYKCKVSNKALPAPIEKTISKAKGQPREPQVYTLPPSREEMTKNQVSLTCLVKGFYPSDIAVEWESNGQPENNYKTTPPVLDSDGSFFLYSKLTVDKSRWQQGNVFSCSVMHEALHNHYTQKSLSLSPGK
